Assay [1] concerns the target T1, human GLP-2 receptor (hGLP2-R) (human, UniProt O95838 1-553).
T1 sequence (looked up): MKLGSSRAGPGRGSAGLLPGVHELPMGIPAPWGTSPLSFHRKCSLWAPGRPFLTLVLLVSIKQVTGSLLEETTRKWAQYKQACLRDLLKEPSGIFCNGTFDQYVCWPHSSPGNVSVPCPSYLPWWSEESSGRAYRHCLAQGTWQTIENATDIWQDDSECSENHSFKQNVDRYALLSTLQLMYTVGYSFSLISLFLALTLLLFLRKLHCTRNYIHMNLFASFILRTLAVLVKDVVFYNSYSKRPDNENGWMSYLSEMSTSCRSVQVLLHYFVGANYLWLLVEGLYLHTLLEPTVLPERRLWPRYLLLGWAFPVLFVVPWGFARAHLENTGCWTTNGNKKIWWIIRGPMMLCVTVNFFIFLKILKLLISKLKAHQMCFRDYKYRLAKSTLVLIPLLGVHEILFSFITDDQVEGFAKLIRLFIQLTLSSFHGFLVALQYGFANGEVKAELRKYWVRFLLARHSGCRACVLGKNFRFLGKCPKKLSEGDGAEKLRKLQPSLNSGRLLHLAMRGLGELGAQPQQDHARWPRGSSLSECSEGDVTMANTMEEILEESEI
Kind of assay: cell-based or functional assay.

Assay [2] has as its target human glucagon-like peptide 1 receptor (GLP-1R) (human, UniProt P43220 24-463). Kind of assay: cell-based or functional assay.

Square brackets hold non-standard residues; d marks the D form. Aib = CC(C)(N)C(=O)O

B1: Compound 31 (peptide)
peptide: H-H[Aib]EGSFTSELATILDGKAARDFIAWLIAHKITD-OH
SMILES: CC[C@H](C)[C@H](NC(=O)[C@H](CC(C)C)NC(=O)[C@H](Cc1c[nH]c2ccccc12)NC(=O)[C@H](C)NC(=O)[C@@H](NC(=O)[C@H](Cc1ccccc1)NC(=O)[C@H](CC(=O)O)NC(=O)[C@H](CCCNC(=N)N)NC(=O)[C@H](C)NC(=O)[C@H](C)NC(=O)[C@H](CCCCN)NC(=O)CNC(=O)[C@H](CC(=O)O)NC(=O)[C@H](CC(C)C)NC(=O)[C@@H](NC(=O)[C@@H](NC(=O)[C@H](C)NC(=O)[C@H](CC(C)C)NC(=O)[C@H](CCC(=O)O)NC(=O)[C@H](CO)NC(=O)[C@@H](NC(=O)[C@H](Cc1ccccc1)NC(=O)[C@H](CO)NC(=O)CNC(=O)[C@H](CCC(=O)O)NC(=O)C(C)(C)NC(=O)[C@@H](N)Cc1c[nH]cn1)[C@@H](C)O)[C@@H](C)O)[C@@H](C)CC)[C@@H](C)CC)C(=O)N[C@@H](C)C(=O)N[C@@H](Cc1c[nH]cn1)C(=O)N[C@@H](CCCCN)C(=O)N[C@H](C(=O)N[C@H](C(=O)N[C@@H](CC(=O)O)C(=O)O)[C@@H](C)O)[C@@H](C)CC
B1: the “EC50 GLP-2 (nM); cAMP AlphaScreen, HEK293 cells expressing human GLP-2R” value (from here on “EC50 GLP-2 (nM); cAMP AlphaScreen”) in assay [1] was found to be 0.078 nM. Further, the “EC50 GLP-1 (nM); cAMP AlphaScreen, HEK293 cells expressing human GLP-1R” value (from here on “EC50 GLP-1 (nM); cAMP AlphaScreen”) in assay [2] amounted to 0.02 nM.

B2: Compound 30 (peptide)
peptide: H-H[Aib]EGSFTSELATILDEQAARDFIAWLYRHKITD-OH
SMILES: CC[C@H](C)[C@H](NC(=O)[C@H](Cc1ccccc1)NC(=O)[C@H](CC(=O)O)NC(=O)[C@H](CCCNC(=N)N)NC(=O)[C@H](C)NC(=O)[C@H](C)NC(=O)[C@H](CCC(N)=O)NC(=O)[C@H](CCC(=O)O)NC(=O)[C@H](CC(=O)O)NC(=O)[C@H](CC(C)C)NC(=O)[C@@H](NC(=O)[C@@H](NC(=O)[C@H](C)NC(=O)[C@H](CC(C)C)NC(=O)[C@H](CCC(=O)O)NC(=O)[C@H](CO)NC(=O)[C@@H](NC(=O)[C@H](Cc1ccccc1)NC(=O)[C@H](CO)NC(=O)CNC(=O)[C@H](CCC(=O)O)NC(=O)C(C)(C)NC(=O)[C@@H](N)Cc1c[nH]cn1)[C@@H](C)O)[C@@H](C)O)[C@@H](C)CC)C(=O)N[C@@H](C)C(=O)N[C@@H](Cc1c[nH]c2ccccc12)C(=O)N[C@@H](CC(C)C)C(=O)N[C@@H](Cc1ccc(O)cc1)C(=O)N[C@@H](CCCNC(=N)N)C(=O)N[C@@H](Cc1c[nH]cn1)C(=O)N[C@@H](CCCCN)C(=O)N[C@H](C(=O)N[C@H](C(=O)N[C@@H](CC(=O)O)C(=O)O)[C@@H](C)O)[C@@H](C)CC
Turning to B2, the “EC50 GLP-2 (nM); cAMP AlphaScreen” value in assay [1] stood at 0.034 nM. For the same molecule, the “EC50 GLP-1 (nM); cAMP AlphaScreen” value in assay [2] is 0.1 nM.

B3: Compound 32 (peptide)
peptide: H-H[Aib]EGTFSSELATILDGKAARDFIAWLIAHKITD-OH
SMILES: CC[C@H](C)[C@H](NC(=O)[C@H](CC(C)C)NC(=O)[C@H](Cc1c[nH]c2ccccc12)NC(=O)[C@H](C)NC(=O)[C@@H](NC(=O)[C@H](Cc1ccccc1)NC(=O)[C@H](CC(=O)O)NC(=O)[C@H](CCCNC(=N)N)NC(=O)[C@H](C)NC(=O)[C@H](C)NC(=O)[C@H](CCCCN)NC(=O)CNC(=O)[C@H](CC(=O)O)NC(=O)[C@H](CC(C)C)NC(=O)[C@@H](NC(=O)[C@@H](NC(=O)[C@H](C)NC(=O)[C@H](CC(C)C)NC(=O)[C@H](CCC(=O)O)NC(=O)[C@H](CO)NC(=O)[C@H](CO)NC(=O)[C@H](Cc1ccccc1)NC(=O)[C@@H](NC(=O)CNC(=O)[C@H](CCC(=O)O)NC(=O)C(C)(C)NC(=O)[C@@H](N)Cc1c[nH]cn1)[C@@H](C)O)[C@@H](C)O)[C@@H](C)CC)[C@@H](C)CC)C(=O)N[C@@H](C)C(=O)N[C@@H](Cc1c[nH]cn1)C(=O)N[C@@H](CCCCN)C(=O)N[C@H](C(=O)N[C@H](C(=O)N[C@@H](CC(=O)O)C(=O)O)[C@@H](C)O)[C@@H](C)CC
Take B3: the “EC50 GLP-2 (nM); cAMP AlphaScreen” value in assay [1] was found to be 0.15 nM. The “EC50 GLP-1 (nM); cAMP AlphaScreen” value in assay [2] turned out to be 0.038 nM.

B4: Compound 34 (peptide)
peptide: H-H[Aib]EGTFTSELATILDEQAARDFISWLIAHKITD-OH
SMILES: CC[C@H](C)[C@H](NC(=O)[C@H](CC(C)C)NC(=O)[C@H](Cc1c[nH]c2ccccc12)NC(=O)[C@H](CO)NC(=O)[C@@H](NC(=O)[C@H](Cc1ccccc1)NC(=O)[C@H](CC(=O)O)NC(=O)[C@H](CCCNC(=N)N)NC(=O)[C@H](C)NC(=O)[C@H](C)NC(=O)[C@H](CCC(N)=O)NC(=O)[C@H](CCC(=O)O)NC(=O)[C@H](CC(=O)O)NC(=O)[C@H](CC(C)C)NC(=O)[C@@H](NC(=O)[C@@H](NC(=O)[C@H](C)NC(=O)[C@H](CC(C)C)NC(=O)[C@H](CCC(=O)O)NC(=O)[C@H](CO)NC(=O)[C@@H](NC(=O)[C@H](Cc1ccccc1)NC(=O)[C@@H](NC(=O)CNC(=O)[C@H](CCC(=O)O)NC(=O)C(C)(C)NC(=O)[C@@H](N)Cc1c[nH]cn1)[C@@H](C)O)[C@@H](C)O)[C@@H](C)O)[C@@H](C)CC)[C@@H](C)CC)C(=O)N[C@@H](C)C(=O)N[C@@H](Cc1c[nH]cn1)C(=O)N[C@@H](CCCCN)C(=O)N[C@H](C(=O)N[C@H](C(=O)N[C@@H](CC(=O)O)C(=O)O)[C@@H](C)O)[C@@H](C)CC
For B4, the “EC50 GLP-2 (nM); cAMP AlphaScreen” value in assay [1] amounted to 0.049 nM. The “EC50 GLP-1 (nM); cAMP AlphaScreen” value in assay [2] was 0.005 nM.

B5: Compound 35 (peptide)
peptide: H-H[Aib]EGTFTSELATILDEQAARDFINWLKAHKITD-OH
SMILES: CC[C@H](C)[C@H](NC(=O)[C@H](Cc1ccccc1)NC(=O)[C@H](CC(=O)O)NC(=O)[C@H](CCCNC(=N)N)NC(=O)[C@H](C)NC(=O)[C@H](C)NC(=O)[C@H](CCC(N)=O)NC(=O)[C@H](CCC(=O)O)NC(=O)[C@H](CC(=O)O)NC(=O)[C@H](CC(C)C)NC(=O)[C@@H](NC(=O)[C@@H](NC(=O)[C@H](C)NC(=O)[C@H](CC(C)C)NC(=O)[C@H](CCC(=O)O)NC(=O)[C@H](CO)NC(=O)[C@@H](NC(=O)[C@H](Cc1ccccc1)NC(=O)[C@@H](NC(=O)CNC(=O)[C@H](CCC(=O)O)NC(=O)C(C)(C)NC(=O)[C@@H](N)Cc1c[nH]cn1)[C@@H](C)O)[C@@H](C)O)[C@@H](C)O)[C@@H](C)CC)C(=O)N[C@@H](CC(N)=O)C(=O)N[C@@H](Cc1c[nH]c2ccccc12)C(=O)N[C@@H](CC(C)C)C(=O)N[C@@H](CCCCN)C(=O)N[C@@H](C)C(=O)N[C@@H](Cc1c[nH]cn1)C(=O)N[C@@H](CCCCN)C(=O)N[C@H](C(=O)N[C@H](C(=O)N[C@@H](CC(=O)O)C(=O)O)[C@@H](C)O)[C@@H](C)CC
Take B5: the “EC50 GLP-2 (nM); cAMP AlphaScreen” value in assay [1] came out at 0.048 nM. The “EC50 GLP-1 (nM); cAMP AlphaScreen” value in assay [2] was determined as 0.006 nM.

B6: Compound 33 (peptide)
peptide: H-H[Aib]EGTFTSELATILDEQAARDFINWLIAHKITD-OH
SMILES: CC[C@H](C)[C@H](NC(=O)[C@H](CC(C)C)NC(=O)[C@H](Cc1c[nH]c2ccccc12)NC(=O)[C@H](CC(N)=O)NC(=O)[C@@H](NC(=O)[C@H](Cc1ccccc1)NC(=O)[C@H](CC(=O)O)NC(=O)[C@H](CCCNC(=N)N)NC(=O)[C@H](C)NC(=O)[C@H](C)NC(=O)[C@H](CCC(N)=O)NC(=O)[C@H](CCC(=O)O)NC(=O)[C@H](CC(=O)O)NC(=O)[C@H](CC(C)C)NC(=O)[C@@H](NC(=O)[C@@H](NC(=O)[C@H](C)NC(=O)[C@H](CC(C)C)NC(=O)[C@H](CCC(=O)O)NC(=O)[C@H](CO)NC(=O)[C@@H](NC(=O)[C@H](Cc1ccccc1)NC(=O)[C@@H](NC(=O)CNC(=O)[C@H](CCC(=O)O)NC(=O)C(C)(C)NC(=O)[C@@H](N)Cc1c[nH]cn1)[C@@H](C)O)[C@@H](C)O)[C@@H](C)O)[C@@H](C)CC)[C@@H](C)CC)C(=O)N[C@@H](C)C(=O)N[C@@H](Cc1c[nH]cn1)C(=O)N[C@@H](CCCCN)C(=O)N[C@H](C(=O)N[C@H](C(=O)N[C@@H](CC(=O)O)C(=O)O)[C@@H](C)O)[C@@H](C)CC
As to B6, in assay [1], the “EC50 GLP-2 (nM); cAMP AlphaScreen” value is 0.041 nM. Also, the “EC50 GLP-1 (nM); cAMP AlphaScreen” value in assay [2] is 0.004 nM.

B7: Compound 2 (peptide)
peptide: H-H[Aib]EGTFSSELATILDEQAARDFIAWLIAHKITD-OH
SMILES: CC[C@H](C)[C@H](NC(=O)[C@H](CC(C)C)NC(=O)[C@H](Cc1c[nH]c2ccccc12)NC(=O)[C@H](C)NC(=O)[C@@H](NC(=O)[C@H](Cc1ccccc1)NC(=O)[C@H](CC(=O)O)NC(=O)[C@H](CCCNC(=N)N)NC(=O)[C@H](C)NC(=O)[C@H](C)NC(=O)[C@H](CCC(N)=O)NC(=O)[C@H](CCC(=O)O)NC(=O)[C@H](CC(=O)O)NC(=O)[C@H](CC(C)C)NC(=O)[C@@H](NC(=O)[C@@H](NC(=O)[C@H](C)NC(=O)[C@H](CC(C)C)NC(=O)[C@H](CCC(=O)O)NC(=O)[C@H](CO)NC(=O)[C@H](CO)NC(=O)[C@H](Cc1ccccc1)NC(=O)[C@@H](NC(=O)CNC(=O)[C@H](CCC(=O)O)NC(=O)C(C)(C)NC(=O)[C@@H](N)Cc1c[nH]cn1)[C@@H](C)O)[C@@H](C)O)[C@@H](C)CC)[C@@H](C)CC)C(=O)N[C@@H](C)C(=O)N[C@@H](Cc1c[nH]cn1)C(=O)N[C@@H](CCCCN)C(=O)N[C@H](C(=O)N[C@H](C(=O)N[C@@H](CC(=O)O)C(=O)O)[C@@H](C)O)[C@@H](C)CC
For the molecule B7, the “EC50 GLP-2 (nM); cAMP AlphaScreen” value in assay [1] came to 0.034 nM. For the same molecule, the “EC50 GLP-1 (nM); cAMP AlphaScreen” value in assay [2] was 0.046 nM.

Source of the values: patent US20190338009A1 (ZEALAND PHARMA A S, published 2019).
